Results on one substance are retold here after patent US20230201322A1.

Experiment [1] concerns the target HLA-A*0201 molecule expressed on the human tumoral cell T2 (human). Description: T2 cell HLA-A2 FACS (BB7.2-PE), peptide titration.
For experiment [2] the target is unchanged. The experiment in a line: T2 cell HLA-A2 FACS (BB7.2-PE), peptide 0.1 µM.
Experiment [3] has the same target. The experiment in a line: T2 cell HLA-A2 FACS (BB7.2-PE), peptide 1 µM.
The target is the same in experiment [4]. Description: T2 cell HLA-A2 FACS (BB7.2-PE), peptide 10 µM.
The target is the same in experiment [5]. Description: T2 cell HLA-A2 FACS (BB7.2-PE), peptide 1 µM. The source holds these as a separate data set.
For experiment [6] the target is unchanged. The experiment in a line: T2 cell HLA-A2 FACS (BB7.2-PE), peptide titration. The source holds these as a separate data set.
Experiment [7] has the same target. The experiment in a line: T2 cell HLA-A2 FACS (BB7.2-PE), peptide 0.1 µM. The source holds these as a separate data set.
Experiment [8] has the same target. The experiment in a line: T2 cell HLA-A2 FACS (BB7.2-PE), peptide titration. This is another data set of the same source.
Experiment [9] has the same target. Description: T2 cell HLA-A2 FACS (BB7.2-PE), peptide 10 µM. The source holds these as a separate data set.
The target is the same in experiment [10]. The experiment in a line: T2 cell HLA-A2 FACS (BB7.2-PE), peptide 1 µM. This is another data set of the same source.
Experiment [11] shares this target. The experiment in a line: T2 cell HLA-A2 FACS (BB7.2-PE), peptide 0.1 µM. The source holds these as a separate data set.
For experiment [12] the target is unchanged. Description: T2 cell HLA-A2 FACS (BB7.2-PE), peptide 10 µM. This is another data set of the same source.

Where two headings read alike, the source gives them in different places.

Take reference peptide HIV pol 589-597: the Conc. inducing 20% of HLA-A2 expression in experiment [1] amounted to 36 µM; in experiment [6], 26.5 µM; in experiment [8], 30.9 µM. Also, the HLA-A2 labelling as % of reference peptide HIV pol 589-597 at 100 µM in [2] was 5.62%; in experiment [3], -5.38%; in [4], 3.8%; in experiment [5], 4.65%; in experiment [7], -9.24%; in [9], 8.8%. Besides, the HLA-A2 labelling as % of reference peptide HIV pol 589-597 at 100 µM is -2.54% in [10], 2.58% in experiment [11] and -3.03% in [12].
